Test results reported in US9657110B2, “Polypeptides and use thereof” (ASTON UNIVERSITY, priority 2011, dated 2017).

Legend:
[1] = tested on: Human osteoblasts (HOB) cells; experiment: Cell attachment on wells coated with BSA-conjugated extended P1 peptide, BSA or FN; assay type: cell-based; details: soluble peptide 100 μg/ml, compared to RAD control peptide
Method: 96-Well ELISA plates were coated with 1 μg/ml of bovine serum albumin (BSA) conjugated peptide (“Extended P1”: […]c; SEQ ID NO:29) conjugated through its C-terminal cysteine via Beta-maleimidopropionic acid N-hydroxysuccinimide ester (MPS). Peptides were dissolved in NaHCO3/Na2CO3 coating buffer, pH 9.6 and plates coated at 4° C. for overnight. Wells coated with 1 μg/ml BSA NaHCO3/Na2CO3 coating buffer or 5 μg/ml FN in 50 mM Tris-HCl, pH 7.4 were used as the control coating materials. Human osteoblasts (HOB) cells in suspension was treated with 100 μg/ml RAD (GRADS; SEQ ID NO:9) or RGD (GRGDTP; SEQ ID NO:8) peptide for 20 min, the cells (3×10^4/well) were seeded into the wells, previously washed with 50 mM Tris-HCl, pH 7.4, and allowed to settle for 30 min. Attached cells were washed once with PBS, pH 7.4, and then fixed with 3.7% paraformaldehyde, further permeabilized with 0.1% (v/v) Triton® X-100 detergent in PBS, and co-stained with May-Grunwald and Giemsa stains as described previously.

FN = experiment: Measurement of TG2 binding to FN by ELISA (cell lysates); details: lysates of transfected HEK293T/17 cells, normalised for expression
Method: Microtitre 96 well plates were coated with 50 μl of 5 μg/ml FN in 50 mM Tris-HCl, pH 7.4 at 4° C. overnight. The wells were blocked for 30 min with 5% (w/v) fat-free milk in PBS, pH 7.4 and washed twice with PBS-TWEEN® detergent, pH 7.4 and once with PBS, pH 7.4. Aliquots (100 μl) of cell lysate containing 60 μg protein were added to the FN-coated wells and incubated for 1 h at 37° C. After washing three times with PBS, pH 7.4, wells were blocked with 100 μl 3% BSA in PBS, pH 7.4 (blocking buffer) for 30 min at room temperature and then incubated with 100 μl Cub7402 (1:1000 dilution in blocking buffer) for 2 h at 37° C. After washing three times with PBS, pH 7.4, the wells were incubated with 100 μl rabbit anti-mouse IgG-HRP conjugated antibody (1:1000 dilution in blocking buffer) for 2 h at 37° C. HRP was detected by the addition of 100 μl of o-phenylenediamine substrate solution (SigmaFast […]™ OPD, Sigma). Colour development was terminated by the addition of 50 μl of 2.5M H2SO4 and absorbance at 490 nm was measured. The amount of TG2/mutant TG2 binding to the FN was normalised between samples by using the densitometry values from Western blotting for the TG protein found in each of the cell lysates used. α-Tubulin was used to normalise for any differences in protein loading.

NIH 3T3 cells = experiment: Detection of TG2 at cell surface (biotinylation), in ECM and in culture medium of transfected cells; assay type: cell-based, mouse; details: transfected NIH 3T3 cells, biotinylation and Western blot, vs wild-type TG2
Method: Cell surface proteins were labelled by biotinylation as described previously (Wang et al., 2010). Briefly, cell monolayers were rinsed three times with ice-cold PBS pH 8.0 and labelled with 0.8 mM sulfo-NHS-LC-biotin dissolved in PBS pH 8.0 at 4° C. for 20 min. Cells were then washed with 50 mM Tris-HCl, pH 8.0 and lysed with 1% SDS at 4° C. in PBS pH8.0. Following denaturation at 95° C., cell lysates were clarified by centrifugation at 14,000×g at 20° C. and 200 μg of protein was incubated overnight at 4° C. with NEUTRAVIDIN® avidin protein-Agarose resin. After washing three times with PBS pH 8.0, the biotin-labelled proteins were dissolved in 2× Laemmli buffer separated by SDS-PAGE and subjected to Western blotting.
Following transfection, cells were incubated for 24 h with 10% (v/v) serum, which was replaced with 1% (v/v) serum and TG2 expression was allowed to proceed for a further 48 h. Proteins from 1 ml of medium were precipitated by the addition of ice cold 20% (w/v) trichloroacetic acid (TCA) to a final concentration of 10% (w/v) Pelleted proteins were then washed once with ice cold 10% (w/v) TCA, ethanol-acetone (1:1) and acetone, and resuspended in 2× Laemmli buffer (Sigma-Aldrich, UK) and analysed by SDS-PAGE and Western blot analysis using monoclonal anti-TG2 antibody (Cub7402). The remaining cells were detached with 2 mM EDTA in PBS, pH 7.4 and the ECM was extracted with 0.1% (w/v) deoxycholate in PBS, pH 7.4. The residual deoxycholate-insoluble ECM proteins were dissolved in 2× Laemmli buffer for further analysis by SDS-PAGE and Western blotting using Cub7402.

[2] = Binding of TG2 to heparin SEPHAROSE, elution with NaCl gradient; details: compared with wt TG2
Method: HEK cells, transiently transfected with wild-type and mutant TG2 were washed twice with ice cold PBS, pH 7.4 and lysed by the addition of 150 μl of 20 mM Tris-HCl pH 7.4, 10 mM EGTA, 2 mM EDTA, 1 mM NaF and 1 mM Na3VO4. After clarification by centrifugation, lysates were mixed with 450 μl of 50 mM Tris-HCl, 1 mM EDTA, 1 mM DTT, pH 7.5 and applied to a 5 ml Heparin SEPHAROSE® column (GE Healthcare) equilibrated in 50 mM Tris-HCl, 1 mM EDTA, 1 mM DTT pH 7.5 (buffer) at a flow rate of 1 ml/min. For the analysis of GTP-bound TG2 (closed conformation), lysates were pre-incubated for 1 h at room temperature with 0.5 mM GTP in 50 mM Tris-HCl, 2 mM MgCl2, 1 mM EDTA, 1 mM DTT pH 7.5. For the analysis of inhibitor-reacted TG2 (open conformation), lysates were incubated with 0.5 mM of irreversible inhibitor R281 (Griffin et al., 2008) and 10 mM CaCl2. The column was washed with 25 ml of buffer and protein was eluted with a linear gradient of increasing NaCl concentration (0-1M) in buffer. Fractions were assayed for TG2 activity and analysed for the presence of TG2 antigen by SDS-PAGE and Western blotting using CUB7402.

Row | Molecule | block of cell attachment on the FN matrix [1] | binding to FN compared to wild type TG2 (FN) | presence on the cell surface (NIH 3T3 cells) | binding to heparin SEPHAROSE (in words) [2]
1 | GRGDTP [RGD peptide, synthetic RGD peptide from Calbiochem] | around 50% | – | – | –
2 | D94A, D97A: TG2 fibronectin binding site mutant (protein, UniProt P21980 2-687, looked up, variant D94A D97A) Protein-glutamine …: AEELVLERCDLELETNGRDHHTADLCREKLVVRRGQPFWLTLHFEGRNYEASVDSLTFSVVTGPAPSQEAGTKARFPLRDAVEEGDWTATVVAQQACTLSLQLTTPANAPIGLYRLSLEASTGYQGSSFVLGHFILLFNAWCPADAVYLDSEEERQEYVLTQQGFIYQGSAKFIKNIPWNFGQFEDGILDICLILLDVNPKFLKNAGRDCSRRSSPVYVGRVVSGMVNCNDDQGVLLGRWDNNYGDGVSPMSWIGSVDILRRWKNHGCQRVKYGQCWVFAAVACTVLRCLGIPTRVVTNYNSAHDQNSNLLIEYFRNEFGEIQGDKSEMIWNFHCWVESWMTRPDLQPGYEGWQALDPTPQEKSEGTYCCGPVPVRAIKEGDLSTKYDAPFVFAEVNADVVDWIQQDDGSVHKSINRSLIVGLKISTKSVGRDEREDITHTYKYPEGSSEEREAFTRANHLNKLAEKEETGMAMRIRVGQSMNMGSDFDVFAHITNNTAEEYVCRLLLCARTVSYNGILGPECGTKYLLNLNLEPFSEKSVPLCILYEKYRDCLTESNLIKVRALLVEPVINSYLLAERDLYLENPEIKIRILGEPKQKRKLVAEVSLQNPLPVALEGCTFTVEGAGLTEEQKTVEIPDPVEAGEEVKVRMDLLPLHMGLHKLVVNFESDKLKAVKGFRNVIIGPA | – | approximately 50% | greater levels | comparable elution profile to the wt enzyme
